Source: patent US20190309044A1, “POLYPEPTIDES AND USES THEREOF AS A DRUG FOR TREATMENT OF AUTOIMMUNE DISORDERS” (Compugen Ltd., priority 2017, published 2019)

Experiments:
male DBA/1OlaHsd mice = assay: CIA, early stage treatment from day 18; format: in vivo, mouse; conditions: 3.3 mg/kg
Description: The aim of this study was to estimate the effect of C1ORF32-P8-V1-ECD-mFc (SEQ ID NO:42) on disease development in a type II Collagen induced arthritis (CIA) mouse model upon administration at early stage of disease; i.e., when specific and predictive markers for RA development are present in the serum, but before onset of clinical symptoms.
In the CIA model, arthritis is induced by immunization with type II collagen in CFA on day 1 which is followed by boosting with type II collagen in CFA on day 21. Antibodies against both CII and cyclic citrullinated peptide (CCPs) appear early after immunization, before joint swelling is observed.
To evaluate the effect of early stage treatment with C1ORF32-P8-V1-ECD-mFc (SEQ ID NO:42) on disease development treatment started on day 18 and was given IP injection, Q2D to mice from day 18 until day 32.
Male DBA/101aHsd mice weighing 16-25 grams (mean 22 g) on day 18 of the study were obtained from Harlan, Inc., Indianapolis, Ind. Mice (10/group) were anaesthetized with Isoflurane, shaved at the base of the tail, and injected intradermally with 150 μl of Freund's Complete Adjuvant (Sigma) containing bovine type II collagen (Elastin Products, Owensville, Mo.) (2 mg/ml) at the base of the tail on day 0 and again on day 21. On study day 18, mice were randomized by body weight into treatment groups. […]

SJL/J mice = assay: Trafficking of transferred cells into the CNS by flow cytometry, adoptive transfer R-EAE; format: in vivo, mouse; conditions: day +10 post cell transfer
Method: PLP139-151 sensitized cells were generated as described in Materials and Methods (cell counts in the reactivation culture are presented in Table 2) and labeled with PBSE (4 uM) before transfer to naïve mice. In study “Cgen data” (FIG. 12), disease was induced in recipient mice (n=10 per group) by i.v. transfer of 5×10^6 blast cells to each recipient mouse. A relatively large number of transferred cells were used in order to allow detection of the transferred cells by flow cytometry analysis at the end of the study. Mice were split into Control Ig and C1ORF32 ECD-Fc (SEQ ID NO:42) treatment groups, receiving 100 ug/dose intraperitoneal injection three times per week for 2 weeks. On Day +14 after cell transfer, 5 representative mice from each group were selected for analysis of trafficking of transferred cells into the CNS. Spleens, cervical lymph nodes, and CNS were collected, and the number of PBSE- or PBSE+/CD45+/CD3+/CD4+ T cells was analyzed by flow cytometric analysis.
An additional experiment (designated “MYC48 FACS”, FIG. 13) was performed using an alternative staining follow-up approach. […] To evaluate C1ORF32 ECD-Fc (SEQ ID NO:42) effect on immune cell trafficking to the CNS, spleens, cervical lymph nodes, and CNS cells collected form 5 mice on day +10 post cell transfer, and the number of transferred CD45hi PBSE+ or GFP+ cells was analyzed by flow cytometry. […]

B1: C1ORF32 ECD-Fc (SEQ ID NO:42): human-mouse fusion protein: human C1ORF32 ECD fused to mouse immunoglobulin Fc (SEQ ID NO:42) (protein)
chain: LQVTVPDKKKVAMLFQPTVLRCHFSTSSHQPAVVQWKFKSYCQDRMGESLGMSSTRAQSLSKRNLEWDPYLDCLDSRRTVRVVASKQGSTVTLGDFYRGREITIVHDADLQIGKLMWGDSGLYYCIITTPDDLEGKNEDSVELLVLGRTGLLADLLPSFAVEIMGSENLYFQGSGEPRGPTIKPCPPCKCPAPNLLGGPSVFIFPPKIKDVLMISLSPIVTCVVVDVSEDDPDVQISWFVNNVEVHTAQTQTHREDYNSTLRVVSALPIQHQDWMSGKEFKCKVNNKDLPAPIERTISKPKGSVRAPQVYVLPPPEEEMTKKQVTLTCMVTDFMPEDIYVEWTNNGKTELNYKNTEPVLDSDGSYFMYSKLRVEKKNWVERNSYSCSVVHEGLHNHHTTKSFSRTPGK
modifications: Fusion protein human C1ORF32-ECD fused to mouse IgG2a Fc
**Q.** How did the “effect of lower dose” value (male DBA/1OlaHsd mice) turn out when B1 was run?
**A.** No effect

**Q.** And the “number of total or activated transferred T cells in spleen and cervical lymph nodes” value (SJL/J mice)?
**A.** No change
